Consider 6 molecules from article PMC6211539, “Structures of collagen IV globular domains: insight into associated pathologies, folding and network assembly” (IUCrJ, 2018).

A word on the Kd: it is a measure of binding affinity in units of concentration. One may read the stoichiometry N as the number of molecules, sites or subunits per partner or assembly.

B1: noncollagenous C-terminal domain (NC1) of the collagen IV α5 chain, recombinant (domain or fragment, human)
chain: SVAHGFLITRHSQTTDAPQCPQGTLQVYEGFSLLYVQGNKRAHGQDLGTAGSCLRRFSTMPFMFCNINNVCNFASRNDYSYWLSTPEPMPMSMQPLKGQSIQPFISRCAVCEAPAVVIAVHSQTIQIPHCPQGWDSLWIGYSFMMHTSAGAEGSGQALASPGSCLEEFRSAPFIECHGRGTCNYYANSYSFWLATVDVSDMFSKPQSETLKAGDLRTRISRCQVCMKRT
notes: collagen IV α5 chain, human, NC1 domain; The construct has an N-terminal BM40 secretion peptide followed by the FLAG tag; also called α5NC1; α5(IV)NC1
B2: noncollagenous C-terminal domain (NC1) of the collagen IV α1 chain, recombinant (domain or fragment, human)
chain: SVDHGFLVTRHSQTIDDPQCPSGTKILYHGYSLLYVQGNERAHGQDLGTAGSCLRKFSTMPFLFCNINNVCNFASRNDYSYWLSTPEPMPMSMAPITGENIRPFISRCAVCEAPAMVMAVHSQTIQIPPCPSGWSSLWIGYSFVMHTSAGAEGSGQALASPGSCLEEFRSAPFIECHGRGTCNYYANAYSFWLATIERSEMFKKPTPSTLKAGELRTHVSRCQVCMRRT
notes: collagen IV α1 chain, human, NC1 domain (about 230 C-terminal residues); The construct has an N-terminal BM40 secretion peptide followed by the FLAG tag; also called α1NC1; α1(IV)NC1
B3: noncollagenous C-terminal domain (NC1) of the collagen IV α2 chain, recombinant, from insect cells (domain or fragment, human)
chain: SVSIGYLLVKHSQTDQEPMCPVGMNKLWSGYSLLYFEGQEKAHNQDLGLAGSCLARFSTMPFLYCNPGDVCYYASRNDKSYWLSTTAPLPMMPVAEDEIKPYISRCSVCEAPAIAIAVHSQDVSIPHCPAGWRSLWIGYSFLMHTAAGDEGGGQSLVSPGSCLEDFRATPFIECNGGRGTCHYYANKYSFWLTTIPEQSFQGSPSADTLKAGLIRTHISRCQVCMKNL
notes: collagen IV α2 chain, human, NC1 domain; The construct has an N-terminal BM40 secretion peptide followed by the FLAG tag; Used for the α121NC1 crystals (expressed in insect cells); also called α2NC1; α2(IV)NC1
B4: noncollagenous C-terminal domain (NC1) of the collagen IV α2 chain, recombinant, from HEK293 cells (domain or fragment, human)
chain: B3 chain
notes: collagen IV α2 chain, human, NC1 domain; N-terminally FLAG-tagged fusion protein; Used for the α2NC1 crystals; also called α2NC1; α2NC1_(homo); source: HEK293 cells, purified as described elsewhere (Sado et al., 1998)

Data set [1] addresses noncollagenous C-terminal domain (NC1) of the collagen IV α3 chain, recombinant (human) (UniProt Q01955). Description: SPR; Biacore T100; α3NC1 or α5NC1 amine-coupled to CM5 chip (~1000 RU); α3NC1 or α5NC1 flowed over; 25°C; 10 mM Tris-HCl pH 7.4, 0.15 M NaCl, 3 mM EDTA, 0.005% surfactant P20; self-association.
The target is the same in data set [2]. Description: crystal structure; α3NC1 alone; sitting drop, 21°C; protein in 50 mM Tris-HCl pH 7.4, 0.5 M NaCl; 16% PEG 3350, 0.2 M MgCl2, 0.1 M bis-tris propane pH 7.5.
Data set [3] has as its target noncollagenous C-terminal domain (NC1) of the collagen IV α4 chain, recombinant (human) (UniProt P53420). Description: crystal structure; α4NC1 alone; sitting drop, 21°C; protein in 50 mM Tris-HCl pH 7.4, 0.15 M NaCl; 6% PEG 3350, 0.2 M Na acetate, 0.1 M MES pH 6.5.
Data set [4] deals with the molecule itself. The experiment in a line: crystal structure; crystals from a 1:1:1 mixture of α3NC1, α4NC1 and α5NC1; sitting drop, 21°C; protein in 50 mM Tris-HCl pH 7.4, 0.15 M NaCl; 20% PEG 8000, 0.2 M NaCl, 0.1 M CAPS pH 10.5.
Data set [5] deals with the molecule itself. The experiment in a line: SPR; Biacore T100; α3NC1 or α5NC1 amine-coupled to CM5 chip (~1000 RU); α3NC1 or α5NC1 flowed over; 25°C; 10 mM Tris-HCl pH 7.4, 0.15 M NaCl, 3 mM EDTA, 0.005% surfactant P20; self-association. A general note: Surface plasmon resonance follows binding to a sensor surface in real time, without labels.
For data set [6], the target named is B3. Description: crystal structure; 2:1 mixture (in terms of mass) of α1NC1 and α2NC1; sitting drop, 21°C; protein in 50 mM Tris-HCl pH 7.4, 0.15 M NaCl; 10% PEG 8000, 0.2 M Mg acetate. Conditions: both partners purified.
Data set [7] concerns the molecule itself. Description: crystal structure; α1NC1 alone; sitting drop, 21°C; protein in 50 mM Tris-HCl pH 7.4, 0.15 M NaCl; 1.4 M Li2SO4, 0.1 M MES pH 6.5.
For data set [8], the target named is B2. The experiment in a line: crystal structure; 2:1 mixture (in terms of mass) of α1NC1 and α2NC1; sitting drop, 21°C; protein in 50 mM Tris-HCl pH 7.4, 0.15 M NaCl; 10% PEG 8000, 0.2 M Mg acetate. Conditions: both partners purified.
Data set [9] concerns the molecule itself. The experiment in a line: crystal structure; α2NC1 (from HEK293 cells) alone; sitting drop, 21°C; protein in 50 mM Tris-HCl pH 7.4, 0.15 M NaCl; 22% polyvinylpyrrolidone K15, 0.1 M Na2SO4, 0.1 M MES pH 6.5.

“And” between values parts separate entries of the source, which are not always exact repeats. Equal entries are not always repeated.

As to “noncollagenous C-terminal domain (NC1) of the collagen IV α3 chain, recombinant (from UniProt Q01955 1441-1670) (domain or fragment)”, the Kd in [1] was 1710 nM. For the same molecule, in data set [2], the stoichiometry N turned out to be 6 subunits. Turning to “noncollagenous C-terminal domain (NC1) of the collagen IV α4 chain, recombinant (from UniProt P53420 1461-1690) (domain or fragment)”, the stoichiometry N in data set [3] is 12 subunits. As to B1, the “stoichiometry N” value in data set [4] stood at 6 subunits. The molecule also yielded a Kd in [5] of 4.92 µM. As to B2, the “stoichiometry N” value is 2 α1NC1 per α2NC1 in data set [6] and 6 subunits in data set [7]. For B3, the binding result in data set [8] was “binds”.

B4: the “stoichiometry N” value in data set [9] was 8 subunits and 4 subunits.
